Patent US11856945B2, “Methods and systems for preparing and preserving a biological sample” (Washington University, priority 2017, dated 2024)

What was measured:
[1] = NGAL quantity in eluates by BCA assay; assay type: physicochemical; conditions: paper card stored at 40° C. for 1 week; % of spiked amount
[2] = Preservation of NGAL in patient urine dried on paper (ELISA); assay type: physicochemical; conditions: three acute kidney injury patients, 1 week
Protocol: Following the successful optimization of ZIF-8 encapsulation using spiked artificial urine samples, the applicability of this technique to patient urine samples was evaluated. Three acute kidney injury patients with different urinary NGAL levels (Patient #1: 32.8 ng/ml, Patient #2: 17.4 ng/ml and Patient #3: 97.5 ng/ml, quantified by ELISA and confirmed by Western blotting, FIG. 15) were selected. […] Thus, protein biomarkers in the mixture are not subjected to extremely low or high pH (Table 2). To assess the preservation efficacy of NGAL, the urine samples with and without ZIF-8 encapsulation dried on paper substrates were stored at 25 or 40° C. for 1 week. NGAL concentration in the eluate was quantified using ELISA. […] Frozen liquid sample (−20° C.) was used as a reference. POSs represent 3 distinct Positive Control signal intensities (POS1>POS2>POS3). Results are the mean and standard deviation from two parallel dots for each biomarker. The frozen-liquid samples stored at −20° C. were employed as the reference.
Sample preparation. NGAL-spiked artificial urine (50 μg/ml of NGAL, 25 μl) or patient urine (25 μl) was first mixed with 2-methylimidazole aqueous solution (12.5 μl) and then zinc acetate dihydrate aqueous solution (12.5 μl). The final concentrations of 2-methylimidazole after mixing were 320 mM, 160 mM, 80 mM and 40 mM. […]

B1: neutrophil gelatinase-associated lipocalin (protein, UniProt P80188 21-198, looked up)
Neutrophil …: QDSTSDLIPAPPLSKVPLQQNFQDNQFQGKWYVVGLAGNAILREDKDPQKMYATIYELKEDKSYNVTSVLFRKKKCDYWIRTFVPGCQPGEFTLGNIKSYPGLTSYLVRVVSTNYNQHAMVFFKKVSQNREYFKITLYGRTKELTSELKENFIRFSKSLGLPENHIVFPVPIDQCIDG
notes: urinary biomarker for acute kidney injury; human recombinant
For B1, which “proteins eluted as measured by BCA assay” value [1] is on record?
The value was 70%.

What about the “NGAL preservation in patient urine” value ([2]; 25° C.) of the same molecule?
Its value is “less than 40%”.

What about the “NGAL preservation in patient urine” value ([2]; 40° C.) of the same molecule?
The value was “less than 40%”.
